Data taken from IntAct's records for PubMed 8599766.

B1: Insulin receptor substrate 1 (Homo sapiens), P35568 (parent)
chain: MASPPESDGFSDVRKVGYLRKPKSMHKRFFVLRAASEAGGPARLEYYENEKKWRHKSSAPKRSIPLESCFNINKRADSKNKHLVALYTRDEHFAIAADSEAEQDSWYQALLQLHNRAKGHHDGAAALGAGGGGGSCSGSSGLGEAGEDLSYGDVPPGPAFKEVWQVILKPKGLGQTKNLIGIYRLCLTSKTISFVKLNSEAAAVVLQLMNIRRCGHSENFFFIEVGRSAVTGPGEFWMQVDDSVVAQNMHETILEAMRAMSDEFRPRSKSQSSSNCSNPISVPLRRHHLNNPPPSQVGLTRRSRTESITATSPASMVGGKPGSFRVRASSDGEGTMSRPASVDGSPVSPSTNRTHAHRHRGSARLHPPLNHSRSIPMPASRCSPSATSPVSLSSSSTSGHGSTSDCLFPRRSSASVSGSPSDGGFISSDEYGSSPCDFRSSFRSVTPDSLGHTPPARGEEELSNYICMGGKGPSTLTAPNGHYILSRGGNGHRCTPGTGLGTSPALAGDEAASAADLDNRFRKRTHSAGTSPTITHQKTPSQSSVASIEEYTEMMPAYPPGGGSGGRLPGHRHSAFVPTRSYPEEGLEMHPLERRGGHHRPDSSTLHTDDGYMPMSPGVAPVPSGRKGSGDYMPMSPKSVSAPQQIINPIRRHPQRVDPNGYMMMSPSGGCSPDIGGGPSSSSSSSNAVPSGTSYGKLWTNGVGGHHSHVLPHPKPPVESSGGKLLPCTGDYMNMSPVGDSNTSSPSDCYYGPEDPQHKPVLSYYSLPRSFKHTQRPGEPEEGARHQHLRLSTSSGRLLYAATADDSSSSTSSDSLGGGYCGARLEPSLPHPHHQVLQPHLPRKVDTAAQTNSRLARPTRLSLGDPKASTLPRAREQQQQQQPLLHPPEPKSPGEYVNIEFGSDQSGYLSGPVAFHSSPSVRCPSQLQPAPREEETGTEEYMKMDLGPGRRAAWQESTGVEMGRLGPAPPGAASICRPTRAVPSSRGDYMTMQMSCPRQSYVDTSPAAPVSYADMRTGIAAEEVSLPRATMAAASSSSAASASPTGPQGAAELAAHSSLLGGPQGPGGMSAFTRVNLSPNRNQSAKVIRADPQGCRRRHSSETFSSTPSATRVGNTVPFGAGAAVGGGGGSSSSSEDVKRHSSASFENVWLRPGELGGAPKEPAKLCGAAGGLENGLNYIDLDLVKDFKQCPQECTPEPQPPPPPPPHQPLGSGESSSTRRSSEDLSAYASISFQKQPEDRQ

Variants of: B1
Conditions: with il4ra_human IL4R
In the case of R212Q, the “effect of a mutation on the interaction” value is reported as “decreasing interaction”.
For R212Q;R227Q, the “effect of a mutation on the interaction” value was “disrupting interaction”.
With R227Q the “effect of a mutation on the interaction” value was “decreasing interaction”.
With M257A the “effect of a mutation on the interaction” value was “decreasing interaction”.
